The values that follow are results of earlier work, collected in article PMC5998221.

The term pKa denotes the pH at which an ionisable group is half protonated.

Some targets named below: Glu35 (UniProt position 53, CAAKFESNFNT); Asp101 (UniProt position 119, KKIVSDGNGMN); Asp18 (UniProt position 36, KRHGLDNYRGY); Asp66 (UniProt position 84, RWWCNDGRTPG); Glu7 (UniProt position 25, VFGRCELAAAM); Asp87 (UniProt position 105, ALLSSDITASV); Asp52 (UniProt position 70, TDGSTDYGILQ); Asp119 (UniProt position 137, RCKGTDVQAWI); Asp48 (UniProt position 66, TNRNTDGSTDY).

Turning to “Hen egg white lysozyme (HEWL, lysozyme C) (Gallus gallus)”, the pKa in the data set with Glu35 is reported as 6.1; with Asp101, 4.5; in the data set with Asp18, 2.8; in the data set with Asp66, 1.2; with Glu7, 2.6; with Asp87, 2.2. Also, the pKa is 3.6 in the data set with Asp52, 3.5 with Asp119 and 1.4 with Asp48.
